Test results from article PMC3193169 (BMC Biotechnology, 2011).
“And” between values parts separate entries of the source, which are not always exact repeats. Equal entries are not always repeated.

B1: anti-SEB single domain antibody (sdAb) A3 (VHH)
VHH: EVQLVESGGGLVQAGDSLRLSCTASGRTFSRAVMGWFRQAPGKEREFVAAISAAPGTAYYAFYADSVRGRFSISADSAKNTVYLQMNSLKPEDTAVYYCAADLKMQVAAYMNQRSVDYWGQGTQVTVSS
B2: biotinylated sdAb A3 (VHH)
VHH: B1 VHH

Columns and labels:
Details in all cases: both partners purified
[1] = target: Staphylococcus aureus enterotoxin B (SEB) toxin (Staphylococcus aureus, strain , UniProt P01552); experiment: SPR
[2] = target: staphylococcal enterotoxin A (SEA) (Staphylococcus aureus, strain , UniProt P0A0L2); experiment: Luminex fluid array direct binding assay
[3] = target: staphylococcal enterotoxin D (SED) (Staphylococcus aureus, strain , UniProt P20723); experiment: Luminex fluid array direct binding assay
Shiga Toxin 1 (STX-1) = Shiga Toxin 1 (STX-1) (Stx1 (phage H30 of Escherichia coli), …, UniProt P10149;P69178); experiment: Luminex fluid array direct binding assay
Sequence of Shiga Toxin 1 (STX-1) (P10149 23-315, chain 1 of 2): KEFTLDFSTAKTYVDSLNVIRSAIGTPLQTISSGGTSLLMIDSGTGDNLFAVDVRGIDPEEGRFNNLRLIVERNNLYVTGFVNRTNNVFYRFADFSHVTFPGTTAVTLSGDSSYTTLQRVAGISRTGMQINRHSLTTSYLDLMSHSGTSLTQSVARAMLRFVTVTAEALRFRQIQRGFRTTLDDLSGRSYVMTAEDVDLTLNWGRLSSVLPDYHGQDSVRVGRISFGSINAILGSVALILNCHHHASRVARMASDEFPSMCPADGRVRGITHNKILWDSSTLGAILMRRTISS
Sequence of Shiga Toxin 1 (STX-1) (P69178 21-89, chain 2 of 2): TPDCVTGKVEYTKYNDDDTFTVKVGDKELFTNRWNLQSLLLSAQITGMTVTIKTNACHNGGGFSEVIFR

Binder | koff [1] | kon [1] | Kd [1] [nM] | binding result [2] | binding result [3] | binding result (Shiga Toxin 1 (STX-1))
B1 | 6e-05 s⁻¹ and 2.2e-05 s⁻¹ | 100000 M⁻¹ s⁻¹ and 290000 M⁻¹ s⁻¹ | – | – | – | –
B2 | 2.8e-05 s⁻¹ | 72000 M⁻¹ s⁻¹ | 0.39 | no binding | no binding | no binding
